From the RNAGym collection of RNA variant scans (doi:10.1073/pnas.2313332121)
This sample holds only a part of the variants without activity.

B1: TPR 5TU (parent)
chain: GGAUCUUCUCGAUCUAACAAAAAAGACAAAUCUGCCACAAAGCUUGAGAGCAUCUUCGGAUGCAGAGGCGGCAGCCUUCGGUGGCGCGAUAGCGCCAACGUUCUCAACUAUGACACGCAAAACGCGUGCUCCGUUGAAUGGAGUUUAUCAUG

Variants of: B1
Assay: polymerase ribozyme fitness, log enrichment relative to wild type (log ratio); higher = more active; in vitro selection for triplet polymerase activity
Outline: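 A single round of triplicate in vitro selection, including frozen incubation at −7 °C, was applied to PCR-built, transcribed mutant libraries of each subunit of a heterodimeric triplet polymerase ribozyme. Illumina sequencing of input and output libraries retained genotypes with ≥10 input reads and ≥1 read per output. Fitness is the base-2 logarithm of genotype enrichment divided by wild-type enrichment, from inverse-variance-weighted replicate averages.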

Variant | polymerase ribozyme fitness (log ratio)
C38A U53A C95G A97G C116U | -2.22
C35U G50U C93G | -3.56
C35U C116U | 0.17
C35A G94C G128A | ≤ -4.2
C35U C95U | -1.1
C36A A47U A52U U53A G59C A106G | ≤ -4.2
A37G A52G C54A | -2.77
C36A C116A | -3.76
A37U C75G C87G C93U U101C | ≤ -4.2
C36A A64C G86C G133U | ≤ -4.2
C36U C76U G124U | -1.95
C35G U55C G68U A91G G126A | ≤ -4.2
C36U U61A C95U U102C | -4
A37G G58U A89G | -2.84
C35U G58A A150G | -1.55
C36G U45G C54U A89U G94U C125G G126A | ≤ -4.2
C36U U55A G58A A91U C93U U127A U148C | ≤ -4.2
C35A U56A U102G C105A G152A | ≤ -4.2
A37G C57U G71U G92C C96U A97C A150C U151A | ≤ -4.2
C35A U55A | -2.64
C36A A91U C93G C118A A137U | ≤ -4.2

Variant | polymerase ribozyme fitness (log ratio)
C35U A64G G81U G92A C93A A115U U134A U151G | ≤ -4.2
C36G A66U G68C | ≤ -4.2
A37U A49C A73U C75G A106C | ≤ -4.2
C35G A52G C96U G140U | -4.08
C36U A98U | -1.07
A37G G84U | -3.14
A37C G58A | 0.575
C35U G83A C116A | -1.03
C35G A40U G71A C87U G136U U148G | ≤ -4.2
C36A U56A U77G C87U U102A A119C | ≤ -4.2
C36U G48U C96G C103G A121C | -2.74
A37C A49C U77A C87G A120G C131G | ≤ -4.2
A37C C95G U134G | -3.26
C38G A47C | -0.652
C38A C85U C87U C116A | -0.329
C35G C54G C79U U127A | ≤ -4.2
A37G G141U U145G | -3.34
C36A U55A G92A C96G G126C U144C | ≤ -4.2
A37U G65A A66U U77G G84A | ≤ -4.2
A37U A49C C95G A97G C108G A138G U146G U151A | ≤ -4.2
C35U A41G G94A A98U G152U | -3.4

Variant | polymerase ribozyme fitness (log ratio)
A37U C38A G58C C85G C87G | ≤ -4.2
C36U U61A C96G G133A | -3.93
C38A C95U | -0.419
C38A C95G | -1.41
C38A U146G | -1.37
C36U A41C A47C A49U U55A C76G G94A A110C A113G U148G | -4.13
C36U C114U C131A | ≤ -4.2
A37C G84U A120G | -2.19
C38A C85U | -0.235
A37U G84A C118U A122U | -1.57
C38A C95G G124C | -1.34
C35G G48U C57U A110U C116U A138C | ≤ -4.2
C35G C76G G81A U82G C93U A121G G152U | -3.58
C35G U55A A60C C75G C114G A119U | ≤ -4.2
C38G A41U C93G A110C | ≤ -4.2
C35U G83C | -1.43
C35U A37G U61A A64U C149G | ≤ -4.2
C35U G81C C85G | -1.5
C36A G50A A64U A66C A98U U104A U109G U148G | ≤ -4.2
C36G C95A C103U U134A A138C | ≤ -4.2
A37U G65C A110U G136C | ≤ -4.2

Variant | polymerase ribozyme fitness (log ratio)
C36U A52U U53C C79U A91U U135A | ≤ -4.2
C36U C93A A110C U139A | ≤ -4.2
C36U A49U C79A A106U A147C | ≤ -4.2
C35U C87U | -0.746
C35U C85G | -2.73
A37C C75U U77G A89C C93A A121C U148G U151G | ≤ -4.2
C38A C93A C131G A150U | ≤ -4.2
C35U U55G A60C A91U A119G A121U C149G | ≤ -4.2
C35A G92A A107G | ≤ -4.2
C36A A110U A122U | ≤ -4.2
C36U | -0.919
C36A | -2.97
C36G | -3.16
C38A A147C | -1.26
C38A C131G U146C U151A | ≤ -4.2
C36U G65C U102G G140C C149G | ≤ -4.2
C36U C95G | -2.94
C36A A91U U145C | ≤ -4.2
A37G U55A C85U C96U A107C C125A U144A A147U | ≤ -4.2
A37U A39G A40U C93U C105G A110U A138U | ≤ -4.2
C35U G59A | 0.0486
